Reference: article doi:10.1101/2021.09.21.461216 (bioRxiv, 2021)

Biological target: GST tagged constitutively activated K-Ras4B (GST-K-RasV12) (UniProt P01116-2 1-188, V12)
Experiment: pull-down

B1: BRI3BP domain identified in the two-hybrid assay, overexpressed in mammalian cells (domain or fragment, UniProt Q8BXV2 85-253, looked up)
chain: RFVQGVDMFLETLWKVWMELLEVLGLDVSNLSQYFSPASVSNSPTRALVLVGVVLLAYWFLSLTLGFTFSLLHLVFGRFFWLVRVILFSMSCVYILHKYEGEPEHAVLPLCVVVAIYFMTGPMGYWRGSPGGLCSPSVEEKLEHLENQVRLLNIRLNRVLENLDRSKDK
With B1 the “fold selectivity for K-Ras over H-Ras” value was ~7 fold.
